Ends that are not written are not given here.
Biological target: E3 ligase MDM2 (Homo sapiens, UniProt Q00987)
Test: Peptide-photocatalyst conjugate labeling of MDM2 versus BSA
Settings: peptide conjugated to photocatalyst through azido-lysine

Chain of E3 ligase MDM2 (Q00987 whole entry): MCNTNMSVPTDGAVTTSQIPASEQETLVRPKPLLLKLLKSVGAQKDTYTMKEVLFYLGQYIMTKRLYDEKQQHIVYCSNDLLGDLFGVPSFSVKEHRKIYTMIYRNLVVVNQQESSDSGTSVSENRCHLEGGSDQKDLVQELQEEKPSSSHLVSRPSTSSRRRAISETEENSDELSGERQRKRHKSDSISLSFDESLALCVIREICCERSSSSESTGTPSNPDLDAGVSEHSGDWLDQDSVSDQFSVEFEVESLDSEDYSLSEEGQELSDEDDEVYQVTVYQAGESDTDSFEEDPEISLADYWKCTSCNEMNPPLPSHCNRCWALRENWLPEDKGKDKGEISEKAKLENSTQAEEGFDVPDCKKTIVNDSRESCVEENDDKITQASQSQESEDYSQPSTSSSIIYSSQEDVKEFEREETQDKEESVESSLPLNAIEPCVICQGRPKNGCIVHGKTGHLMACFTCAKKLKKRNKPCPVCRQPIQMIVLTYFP

## ATSP7041: α-helical stapled cyclic peptide targeting MDM2, conjugated to the photocatalyst through a modified azido-lysine (KLTFAEYWAQAASAA; staple (positions not given here); also: stapled, places not given here, photocatalyst conjugated via azido-lysine, place not given here)
  enrichment of target protein MDM2 compared to free photocatalyst control: 3 fold

Source: patent US20220306683A1, “PROXIMITY-BASED LABELING SYSTEMS AND APPLICATIONS THEREOF” (The Trustees of Princeton University, priority 2019, published 2022)
